Results as given in patent US20020086983.

Tests used:
[1] = biological target: FLAME-1 (in vitro translated, 35S-labeled)
[2] = biological target: FLAME-1-D341A (in vitro translated, 35S-labeled)

Protein	cleavage of 35S-labeled FLAME-1 into p39 and p12 (SDS-PAGE, autoradiography) [1]	cleavage of 35S-labeled FLAME-1-D341A (SDS-PAGE, autoradiography) [2]
caspase-10 (Mch4), purified recombinant (protein) VKTFLEALPRAAVYRMNRNHRGLCVIVNNHSFTSLKDRQGTHKDAEILSHVFQWLGFTVHIHNNVTKVEMEMVLQKQKCNPAHADGDCFVFCILTHGRFGAVYSSDEALIPIREIMSHFTALQCPRLAEKPKLFFIQACQGEEIQPSVSIEADALNPEQAPTSLQDSIPAEADFLLGLATVPGYVSFRHVEEGSWYIQSLCNHLKKLVPRHEDILSILTAVNDDVSRRVDKQGTKKQMPQPAFTLRKKLVFPVPLDALSL	in vitro translated FLAME-1 can be cleaved by several caspases including CPP32, Mch2, Mch3, Mch4, MchS and ICH-1 to generate two fragments (p39 and pl2)	a D to A mutation in this site prevents these caspases from cleaving FLAME-1
caspase-8 (Mch5), purified recombinant (protein) SESQTLDKVYQMKSKPRGYCLIINNHNFAKAREKVPKLHSIRDRNGTHLDAGALTTTFEELHFEIKPHDDCTVEQIYEILKIYQLMDHSNMDCFICCILSHGDKGIIYGTDGQEAPIYELTSQFTGLKCPSLAGKPKVFFIQACQGDNYQKGIPVETDSEEQPYLEMDLSSPQTRYIPDEADFLLGMATVNNCVSYRNPAEGTWYIQSLCQSLRERCPRGDDILTILTEVNYEVSNKDDKKNMGKQMPQPTFTLRKKLVFPSD	in vitro translated FLAME-1 can be cleaved by several caspases including CPP32, Mch2, Mch3, Mch4, MchS and ICH-1 to generate two fragments (p39 and pl2)	a D to A mutation in this site prevents these caspases from cleaving FLAME-1
caspase-2 (ICH-1), purified recombinant (protein) GPVCLQVKPCTPEFYQTHFQLAYRLQSRPRGLALVLSNVHFTGEKELEFRSGGDVDHSTLVTLFKLLGYDVHVLCDQTAQEMQEKLQNFAQLPAHRVTDSCIVALLSHGVEGAIYGVDGKLLQLQEVFQLFDNANCPSLQNKPKMFFIQACRGDETDRGVDQQDGKNHAGSPGCEESDAGKEKLPKMRLPTRSDMICGYACLKGTAAMRNTKRGSWYIEALAQVFSERACDMHVADMLVKVNALIKDREGYAPGTEFHRCKEMSEYCSTLCRHLYLFPGHPPT	in vitro translated FLAME-1 can be cleaved by several caspases including CPP32, Mch2, Mch3, Mch4, MchS and ICH-1 to generate two fragments (p39 and pl2)	a D to A mutation in this site prevents these caspases from cleaving FLAME-1
caspase-3 (CPP32), purified recombinant (protein) SGISLDNSYKMDYPEMGLCIIINNKNFHKSTGMTSRSGTDVDAANLRETFRNLKYEVRNKNDLTREEIVELMRDVSKEDHSKRSSFVCVLLSHGEEGIIFGTNGPVDLKKITNFFRGDRCRSLTGKPKLFIIQACRGTELDCGIETDSGVDDDMACHKIPVEADFLYAYSTAPGYYSWRNSKDGSWFIQSLCAMLKQYADKLEFMHILTRVNRKVATEFESFSFDATFHAKKQIPCIVSMLTKELYFYH	in vitro translated FLAME-1 can be cleaved by several caspases including CPP32, Mch2, Mch3, Mch4, MchS and ICH-1 to generate two fragments (p39 and pl2)	
caspase-6 (Mch2), purified recombinant (protein) AFYKREMFDPAEKYKMDHRRRGIALIFNHERFFWHLTLPERRGTCADRDNLTRRFSDLGFEVKCFNDLKAEELLLKIHEVSTVSHADADCFVCVFLSHGEGNHIYAYDAKIEIQTLTGLFKGDKCHSLVGKPKIFIIQACRGNQHDVPVIPLDVVDNQTEKLDTNITEVDAASVYTLPAGADFLMCYSVAEGYYSHRETVNGSWYIQDLCEMLGKYGSSLEFTELLTLVNRKVSQRRVDFCKDPSAIGKKQVPCFASMLTKKLHFFPKSN	in vitro translated FLAME-1 can be cleaved by several caspases including CPP32, Mch2, Mch3, Mch4, MchS and ICH-1 to generate two fragments (p39 and pl2)	a D to A mutation in this site prevents these caspases from cleaving FLAME-1
caspase-7 (Mch3), purified recombinant (protein) AKPDRSSFVPSLFSKKKKNVTMRSIKTTRDRVPTYQYNMNFEKLGKCIIINNKNFDKVTGMGVRNGTDKDAEALFKCFRSLGFDVIVYNDCSCAKMQDLLKKASEEDHTNAACFACILLSHGEENVIYGKDGVTPIKDLTAHFRGDRCKTLLEKPKLFFIQACRGTELDDGIQADSGPINDTDANPRYKIPVEADFLFAYSTVPGYYSWRSPGRGSWFVQALCSILEEHGKDLEIMQILTRVNDRVARHFESQSDDPHFHEKKQIPCVVSMLTKELYFSQ	in vitro translated FLAME-1 can be cleaved by several caspases including CPP32, Mch2, Mch3, Mch4, MchS and ICH-1 to generate two fragments (p39 and pl2)	
